Here are results for one molecule from doi:10.1101/2024.03.08.584184.

For this data set, the target named is cGAS (Homo sapiens, UniProt Q8N884 1-522). Description: EMSA. (In general: In EMSA bound probe runs differently from free probe, usually more slowly.)
cGAS, sequence (Q8N884 whole entry): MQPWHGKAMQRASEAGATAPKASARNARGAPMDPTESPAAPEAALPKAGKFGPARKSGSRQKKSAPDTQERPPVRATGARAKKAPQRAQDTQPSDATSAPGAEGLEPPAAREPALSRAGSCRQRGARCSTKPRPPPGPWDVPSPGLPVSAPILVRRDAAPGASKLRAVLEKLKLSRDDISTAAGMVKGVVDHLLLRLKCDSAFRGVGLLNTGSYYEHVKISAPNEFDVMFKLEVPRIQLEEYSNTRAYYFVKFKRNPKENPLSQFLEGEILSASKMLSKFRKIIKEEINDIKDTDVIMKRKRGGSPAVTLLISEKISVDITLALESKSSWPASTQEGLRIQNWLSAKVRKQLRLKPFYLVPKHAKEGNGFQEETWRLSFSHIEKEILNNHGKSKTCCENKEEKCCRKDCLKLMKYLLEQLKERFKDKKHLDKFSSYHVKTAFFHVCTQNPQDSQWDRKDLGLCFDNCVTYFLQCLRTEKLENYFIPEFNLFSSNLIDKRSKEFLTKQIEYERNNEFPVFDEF

B1: 70bp Oligo 2 (dsDNA)
DNA 1: GGCAAGCAGGCCTTCTCATGCGTATATCAACGTGTCCGTTTGAGATATCAGTGTTCTCTTTCCCGGTTAA
DNA 2: TTAACCGGGAAAGAGAACACTGATATCTCAAACGGACACGTTGATATACGCATGAGAAGGCCTGCTTGCC
As to B1, the binding result is listed as “binds”.
